Source: US20240043883A1 (Board of Trustees of Michigan State University, priority 2021, published 2024)

B1: Corynebacterium glutamicum Cg10062 variant E114Q, SEQ ID NO: 60 (Corynebacterium glutamicum ATCC 13032; E115Q) (protein)
chain: PTYTCWSQRIRISREAKQRIAEAITDAHHELAHAPKYLVQVIFNEVEPDSYFIAAQSASENHIWVQATIRSGRTEKQKEELLLRLTQEIALILGIPNEEVWVYITEIPGSNMTQYGRLLMEPGEEEKWFNSLPEGLRERLTELEGSSEENLYFQGLEHHHHHH
B2: Corynebacterium glutamicum Cg10062 variant E114D, SEQ ID NO: 61 (Corynebacterium glutamicum ATCC 13032; E115D) (protein)
chain: PTYTCWSQRIRISREAKQRIAEAITDAHHELAHAPKYLVQVIFNEVEPDSYFIAAQSASENHIWVQATIRSGRTEKQKEELLLRLTQEIALILGIPNEEVWVYITEIPGSNMTDYGRLLMEPGEEEKWFNSLPEGLRERLTELEGSSEENLYFQGLEHHHHHH
B3: Corynebacterium glutamicum Cg10062 variant E114D-Y103F, SEQ ID NO: 71 (Corynebacterium glutamicum ATCC 13032; E115D/Y104F) (protein)
chain: PTYTCWSQRIRISREAKQRIAEAITDAHHELAHAPKYLVQVIFNEVEPDSYFIAAQSASENHIWVQATIRSGRTEKQKEELLLRLTQEIALILGIPNEEVWVFITEIPGSNMTDYGRLLMEPGEEEKWFNSLPEGLRERLTELEGSSEENLYFQGLEHHHHHH
B4: Cg10062(E114N): Novel hydratase-only Cg10062 variant with E114N mutation, SEQ ID NO: 24 and 62 (protein)
chain: PTYTCWSQRIRISREAKQRIAEAITDAHHELAHAPKYLVQVIFNEVEPDSYFIAAQSASENHIWVQATIRSGRTEKQKEELLLRLTQEIALILGIPNEEVWVYITEIPGSNMTNYGRLLMEPGEEEKWFNSLPEGLRERLTELEGSSE
modifications: Cg10062(E114N) from Corynebacterium glutamicum codon-optimized for Escherichia coli
B5: Cg10062(E114D-Y103F): Cg10062 double variant E114D-Y103F, SEQ ID NO: 33 and 71 (protein)
chain: PTYTCWSQRIRISREAKQRIAEAITDAHHELAHAPKYLVQVIFNEVEPDSYFIAAQSASENHIWVQATIRSGRTEKQKEELLLRLTQEIALILGIPNEEVWVFITEIPGSNMTDYGRLLMEPGEEEKWFNSLPEGLRERLTELEGSSE
modifications: Cg10062(E114D-Y103F) from Corynebacterium glutamicum codon-optimized for Escherichia coli
B6: H28A: Cg10062 variant with H28A mutation, SEQ ID NO: 25 and 63 (protein)
chain: PTYTCWSQRIRISREAKQRIAEAITDAAHELAHAPKYLVQVIFNEVEPDSYFIAAQSASENHIWVQATIRSGRTEKQKEELLLRLTQEIALILGIPNEEVWVYITEIPGSNMTEYGRLLMEPGEEEKWFNSLPEGLRERLTELEGSSE
modifications: Cg10062(H28A) from Corynebacterium glutamicum codon-optimized for Escherichia coli
B7: E114A: Cg10062 variant with E114A mutation, SEQ ID NO: 32 and 70 (protein)
chain: PTYTCWSQRIRISREAKQRIAEAITDAHHELAHAPKYLVQVIFNEVEPDSYFIAAQSASENHIWVQATIRSGRTEKQKEELLLRLTQEIALILGIPNEEVWVYITEIPGSNMTAYGRLLMEPGEEEKWFNSLPEGLRERLTELEGSSE
modifications: Cg10062(E114A) from Corynebacterium glutamicum codon-optimized for Escherichia coli
B8: Y103A: Cg10062 variant with Y103A mutation, SEQ ID NO: 30 and 68 (protein)
chain: PTYTCWSQRIRISREAKQRIAEAITDAHHELAHAPKYLVQVIFNEVEPDSYFIAAQSASENHIWVQATIRSGRTEKQKEELLLRLTQEIALILGIPNEEVWVAITEIPGSNMTEYGRLLMEPGEEEKWFNSLPEGLRERLTELEGSSE
modifications: Cg10062(Y103A) from Corynebacterium glutamicum codon-optimized for Escherichia coli
B9: Y103F: Cg10062 variant with Y103F mutation, SEQ ID NO: 31 and 69 (protein)
chain: PTYTCWSQRIRISREAKQRIAEAITDAHHELAHAPKYLVQVIFNEVEPDSYFIAAQSASENHIWVQATIRSGRTEKQKEELLLRLTQEIALILGIPNEEVWVFITEIPGSNMTEYGRLLMEPGEEEKWFNSLPEGLRERLTELEGSSE
modifications: Cg10062(Y103F) from Corynebacterium glutamicum codon-optimized for Escherichia coli
B10: R70A: Cg10062 variant with R70A mutation, SEQ ID NO: 26 and 64 (protein)
chain: PTYTCWSQRIRISREAKQRIAEAITDAHHELAHAPKYLVQVIFNEVEPDSYFIAAQSASENHIWVQATIASGRTEKQKEELLLRLTQEIALILGIPNEEVWVYITEIPGSNMTEYGRLLMEPGEEEKWFNSLPEGLRERLTELEGSSE
modifications: Cg10062(R70A) from Corynebacterium glutamicum codon-optimized for Escherichia coli
B11: R70K: Cg10062 variant with R70K mutation, SEQ ID NO: 27 and 65 (protein)
chain: PTYTCWSQRIRISREAKQRIAEAITDAHHELAHAPKYLVQVIFNEVEPDSYFIAAQSASENHIWVQATIKSGRTEKQKEELLLRLTQEIALILGIPNEEVWVYITEIPGSNMTEYGRLLMEPGEEEKWFNSLPEGLRERLTELEGSSE
modifications: Cg10062(R70K) from Corynebacterium glutamicum codon-optimized for Escherichia coli
B12: R73A: Cg10062 variant with R73A mutation, SEQ ID NO: 28 and 66 (protein)
chain: PTYTCWSQRIRISREAKQRIAEAITDAHHELAHAPKYLVQVIFNEVEPDSYFIAAQSASENHIWVQATIRSGATEKQKEELLLRLTQEIALILGIPNEEVWVYITEIPGSNMTEYGRLLMEPGEEEKWFNSLPEGLRERLTELEGSSE
modifications: Cg10062(R73A) from Corynebacterium glutamicum codon-optimized for Escherichia coli

Key:
[1] = substrate: C#CC(=O)O; assay: purified protein, by the assay type; assay type: biochemical, Corynebacterium glutamicum; conditions: other: ACA, 100 mM sodium phosphate pH 8.0, 25 °C
Method: (§1) Steady-state kinetics were carried out using a Molecular Devices SpectraMax iD3 multi-mode microplate reader and Shimadzu UV2600 spectrophotometer. All assays were carried out in triplicate at 25° C. in 100 mM sodium phosphate pH 8.0 with a final volume of 200 μL, unless otherwise specified. The reduction of acetaldehyde by NADH-dependent alcohol dehydrogenase (ADH) was monitored by following the oxidation of NADH at 340 nm (ε=6220 M^−1 cm^−1).
(§2) All stock solutions, except ADH, required for the kinetics assays used for determining hydratase and hydratase/decarboxylase activities were prepared in 100 mM sodium phosphate pH 8.0. […] Stock solutions of ADH were prepared using deionized water, as recommended by the manufacturer. […] The final pH of each assay was 8.
(§3) The amount of enzyme used in each assay was varied in order to observe measurable activity. Thus, the rates obtained from this experiment were not used directly to compare the enzyme activity. These activities were only used for establishing the product profile of each enzyme. The ratios of MSA and acetaldehyde formed by each enzyme was determined by the coupled enzyme assay (FIG. 13), using the differences in rates in the presence and absence of MSAD (Table 10). […] All other components used for steady-state kinetics were identical to those used in the initial screening assays.

[2] = Coupled enzyme assay (ADH, with and without MSAD): hydratase and hydratase/decarboxylase activity and product profile of Cg10062 and variants; assay type: biochemical; conditions: for Rate in the absence of MSAD / Rate in the presence of MSAD: ACA 0.5 mM, pH 8, enzyme final concentration differs per variant (0.025-1.50 mg mL^−1), rates not directly comparable; for Product Ratio (%) acetaldehyde / Product Ratio (%) malonate semialdehyde: from Cg10062 activity in the presence and absence of MSAD; for Product Ratio (%) acetaldehyde: * from non-enzymatic decarboxylation of malonate semialdehyde; for Product Ratio (%) malonate semialdehyde: ACA substrate, pH 8.0, 25° C.
Method: as §1, §2, §3

Molecule	Rate in the absence of MSAD [2]	Rate in the presence of MSAD [2]	further results
B1			Km [1]: 64 ± 12 µM; kcat [1]: 0.66 ± 0.04 s⁻¹; kcat/Km [1]: 10800 ± 2100 M⁻¹ s⁻¹
B2			Km [1]: 557 ± 62 µM; kcat [1]: 1.12 ± 0.05 s⁻¹; kcat/Km [1]: 2000 ± 200 M⁻¹ s⁻¹
B3			Km [1]: 72 ± 7 µM; kcat [1]: 0.34 ± 0.01 s⁻¹; kcat/Km [1]: 4700 ± 500 M⁻¹ s⁻¹
B4	no activity	67 µM/min	Product Ratio (%) acetaldehyde [2]: <1* %; Product Ratio (%) malonate semialdehyde [2]: >99%; product of ACA hydration ([2]; in words): produces only malonic semialdehyde
B5	no activity	39 µM/min	Product Ratio (%) acetaldehyde [2]: <1* %; Product Ratio (%) malonate semialdehyde [2]: >99%
B6	4.5 µM/min	12 µM/min	
B7	11 µM/min	15 µM/min	
B8	16 µM/min	38 µM/min	
B9	43 µM/min	65 µM/min	
B10	no activity	no activity	
B11	no activity	no activity	
B12	no activity	no activity	
